Assay [1] concerns the target T1, human TROP2 protein (Sino Biological, #10428-H08H) (human, UniProt P09758 27-274).
T1 construct: bought protein; also called human Trop2 protein antigen (His tag); not shown: His tag
T1 sequence (looked up): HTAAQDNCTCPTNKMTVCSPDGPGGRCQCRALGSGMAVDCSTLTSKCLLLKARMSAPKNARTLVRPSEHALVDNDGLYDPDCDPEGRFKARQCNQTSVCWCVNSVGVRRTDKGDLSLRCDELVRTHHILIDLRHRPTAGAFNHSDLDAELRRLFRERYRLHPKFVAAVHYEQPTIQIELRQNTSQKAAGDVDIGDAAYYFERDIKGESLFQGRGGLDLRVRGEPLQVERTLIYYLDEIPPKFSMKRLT
The experiment in a line: BLI, Octet RED96, AHC sensor. In a few lines: (§1)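 Sensor loaded w/ 200 nM Trop2 (human or monkey), PBS pH 7.4 + 0.1% BSA + 0.02% Tween 20. Ab 40 nM, assoc 3 min / dissoc 5 min, 30° C. Real-time binding fit for KD, kon, koff.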
(In general: Biolayer interferometry detects binding as a change in optical thickness at a sensor tip.)

For assay [2], the target named is T2, monkey Trop2 protein (Sino Biological, #90893-C08H) (monkey, UniProt A0A2K5UE71 27-274).
T2 construct: bought protein; also called monkey Trop2 protein antigen (His tag)
T2 sequence: T1 sequence (looked up) with M36V, K46E, S67N, I204V
Kind of assay: BLI, Octet RED96, AHC sensor. In a few lines: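 Antibody at 40 nM is tested against captured human or monkey Trop2, which is loaded at 200 nM. Binding lasts 3 min and washout 5 min, both at 30° C in PBS pH 7.4 containing BSA and Tween 20.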

Another assay has as its target T3, human Trop2 on cells (human, UniProt P09758 27-323).
T3 construct: whole, on cells; also called hTrop2; 293T-human Trop2 cells
T3 sequence (looked up): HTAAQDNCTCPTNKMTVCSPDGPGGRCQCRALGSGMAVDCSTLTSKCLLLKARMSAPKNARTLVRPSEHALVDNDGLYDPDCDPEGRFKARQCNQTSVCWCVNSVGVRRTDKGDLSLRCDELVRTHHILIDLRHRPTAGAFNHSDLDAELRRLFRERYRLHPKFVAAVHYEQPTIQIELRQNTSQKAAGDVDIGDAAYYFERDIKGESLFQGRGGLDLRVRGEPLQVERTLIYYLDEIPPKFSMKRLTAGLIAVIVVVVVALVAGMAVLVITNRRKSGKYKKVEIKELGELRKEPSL
The experiment in a line: flow cytometry on 293T-human Trop2 cells. In short, it runs like this: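 Cells at 1×10⁶/mL in PBS were incubated for 1 h, washed in PBS+0.5% BSA, then stained with Alexa Fluor 488 anti-human IgG for 1 h at 4 °C. Cell-bound fluorescence was measured by flow cytometry, with all steps on ice.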
In general terms: Flow cytometry measures light scatter and fluorescence of single cells or particles in a stream.

In assay [3] the target is T2, monkey Trop2 protein (Sino Biological, …). Kind of assay: BLI, Octet RED96; ratio against KD for human Trop2 protein. In a few lines:
as §1

Numbering of substitutions follows the chain as printed.

Here are results for 1 molecule from patent US20240067748A1 (NONA BIOSCIENCES SUZHOU, published 2024).

B1: PR001168 (antibody, human IgG1, kappa, V domains shown)
VH: QVQLVESGGGVVQPGRSLRLSCATSGFIFSSYGMHWVRQAPGKGLDWVAVIWYDGSNKYYADSVKGRFTISRDNSKNTLYLQMNSLRVEDTAVYYCARETSSWYVGYLQHWGQGTLVTVSS
VL: EIVMTQSPATLSVSPGERVSLSCRASQSVNGNVAWYQQKPGQAPRLLIYAASTRATGIPARFSGSGSGTESTLTISSLQSEDCAVYYCQQYNNWPSTFGPGTKLEVTR
notes: fully human IgG1/kappa; also called antibody No. (28)
On to B1, for which, in assay [1], the dissociation constant Kd (commonly the equilibrium constant for the complex coming apart) amounted to 1.59 nM; the Response was determined as 0.333; the dissociation rate constant (koff) (as a rule, the first-order rate constant of dissociation) was 0.00014 s⁻¹; the kon (as a rule, a measure of how fast the partners come together) stood at 88000 M⁻¹ s⁻¹. Also, in assay [2], binding was characterised by a dissociation constant (Kd) of 2.45 nM, the Response is 0.311, the koff was 0.000145 s⁻¹ and the on-rate (kon) was found to be 59300 M⁻¹ s⁻¹. Further, in the assay with human Trop2 on cells, the concentration for a half-maximal effect (EC50) (as a rule, the concentration needed to bring the measured effect to its halfway point) was 0.669 nM; the “Maximum (MFI)” value came to 6780 MFI; the Top % worked out at 105%. Further, the “KD (monkey)/KD (human)” value in assay [3] amounted to 1.54.
